Reference: paper PMC9977310, “ABT1 modifies SMARD1 pathology via interactions with IGHMBP2 and stimulation of ATPase and helicase activity” (JCI Insight, 2023)
Blank lines part the entries; values can stand above or below the molecule they belong to.

Assays:
[1] = system: IGHMBP2;ABT1 (Homo sapiens;Mus musculus); test: MST; details: MST: 100 nM NT-647-labeled IGHMBP2 (+/- 100 nM ABT1), RNA titrated from 1 uM (single) or 500 nM each (two RNAs), buffer, salt, pH and temperature not stated. …
[2] = biological target: T1, immunoglobulin mu DNA binding protein 2 (IGHMBP2), human, full length, thioredoxin-6xHis fusion from pET32b (human, UniProt P38935 1-993, RED-Tris-NTA (NT-647) fluorescent label in the MST); test: MST; IGHMBP2 RED-Tris-NTA labelled, constant 100 nM; partner titrated (1 μM to 1.53 × 10^5 μM as printed); fit to a quadratic equation, MO.Affinity Analysis; details: both partners purified
T1 construct: IGHMBP2, human, full-length cDNA synthesized (GenScript), cloned into pET32b; 110 kDa IGHMBP2 + ~14 kDa thioredoxin-6xHis, predicted ~124 kDa; pET32b may add further vector-coded residues (S-tag, linkers) between the tags and the protein; also called pET32b-IGHMBP2; pET32-IGHMBP2; source: bacterial cell lysate in the immunoprecipitation
T1 sequence (looked up): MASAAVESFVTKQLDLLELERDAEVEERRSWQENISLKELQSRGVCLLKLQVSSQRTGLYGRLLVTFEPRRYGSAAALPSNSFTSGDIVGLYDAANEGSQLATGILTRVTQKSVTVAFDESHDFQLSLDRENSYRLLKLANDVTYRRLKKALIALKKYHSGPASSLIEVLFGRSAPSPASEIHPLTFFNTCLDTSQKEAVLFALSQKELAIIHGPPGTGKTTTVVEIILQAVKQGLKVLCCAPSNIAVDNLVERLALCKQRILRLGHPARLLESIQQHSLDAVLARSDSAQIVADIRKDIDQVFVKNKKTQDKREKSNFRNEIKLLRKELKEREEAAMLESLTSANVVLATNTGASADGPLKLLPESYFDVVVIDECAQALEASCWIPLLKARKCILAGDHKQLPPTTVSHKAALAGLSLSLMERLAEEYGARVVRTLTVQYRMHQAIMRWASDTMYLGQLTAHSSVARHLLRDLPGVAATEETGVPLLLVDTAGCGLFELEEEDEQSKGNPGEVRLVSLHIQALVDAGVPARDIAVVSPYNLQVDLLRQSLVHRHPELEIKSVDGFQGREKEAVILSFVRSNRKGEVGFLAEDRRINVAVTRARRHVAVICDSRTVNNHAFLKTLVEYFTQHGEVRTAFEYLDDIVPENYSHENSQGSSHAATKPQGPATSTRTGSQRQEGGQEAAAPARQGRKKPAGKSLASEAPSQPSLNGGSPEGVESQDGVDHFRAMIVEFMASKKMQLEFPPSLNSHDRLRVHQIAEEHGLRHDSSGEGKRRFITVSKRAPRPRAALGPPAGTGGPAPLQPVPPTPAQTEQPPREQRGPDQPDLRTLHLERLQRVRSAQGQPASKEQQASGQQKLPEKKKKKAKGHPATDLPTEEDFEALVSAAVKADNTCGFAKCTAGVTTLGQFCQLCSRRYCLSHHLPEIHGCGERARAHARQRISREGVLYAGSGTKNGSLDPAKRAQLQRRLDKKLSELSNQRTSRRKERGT

[3] = biological target: T1, immunoglobulin mu DNA binding protein 2 …; test: not stated; stoichiometry of ABT1 to IGHMBP2, Supplemental Figure 1; told in the paragraph on DLS, method not given; details: both partners purified
[4] = biological target: T1, immunoglobulin mu DNA binding protein 2 …; test: cell-based or functional assay

Molecule: U3 snoRNA
Kd [1]: 35 nM

Molecule: 5' ETS RNA (47S pre-rRNA)
Kd [1]: > 697 nM

Molecule: 5' ETS RNA + U3 snoRNA (annealed)
Kd ([1]; 100 nM IGHMBP2 + 100 nM ABT1, RNAs from 500 nM each): 28 nM

Kd [2]: ~52 nM
stoichiometry N [3]: ~1
ATPase activity of IGHMBP2 (100 nM) with increasing ABT1 up to 120 nM (malachite green, free phosphate), fold increase over IGHMBP2 alone [4]: 1.96 fold
helicase activity of IGHMBP2 (100 nM) with increasing ABT1 up to 120 nM (Cy3-labelled DNA substrate), fold increase over IGHMBP2 alone [4]: 1.41 fold
nucleic acid unwinding rate of TP31-18mer duplex, 100 nM IGHMBP2 + 100 nM ABT1, 1-7 min (IGHMBP2 alone 1.141/min; printed as a 1.42-fold increase) [4]: 5.96 min⁻¹
rate of DNA substrate unwinding/nM protein, 100 nM IGHMBP2 with ABT1 20-100 nM, 7 min (IGHMBP2 alone 0.005/min; printed as 1.84-fold increased activity) [4]: 0.01 min⁻¹
B1: activator of basal transcription 1 (ABT1), mouse, full length, GST fusion from pGEX-6P1 (natural protein, UniProt Q9QYL7 1-269, looked up)
chain: MVKAGELVEQQKAAMEEEANAEAAEDQEEPEDTACSSSSKKKKKVVPGIVYLGHVPPRFRPLHVRNLLSAYGEVGRVFFQAEDHFVKRKKKAAAAAGGKKGAKYSKDYTEGWVEFRDKRVAKRVAASLHNTPMGARKRSPFRYDLWNLKYLHRFTWSHLSEHLAFERQVRRQRLRAEVAQAKRETDFYLRNVEQGQHFLAADGDATRPNSSWTFTQRPTEQEFRARKAARPGGRERARLANVEDQARSNRGLLAKIFGAPLPAESKEKP
notes: ABT1, mouse, full-length cDNA synthesized (GenScript), cloned into pGEX6P1; 31 kDa ABT1 + ~26 kDa GST, predicted ~57 kDa; Mouse ABT1 was tested against human IGHMBP2; No cleavage of GST is described; also called GST-ABT1; pGEX-ABT1; source: E. coli (BL21 and Rosetta strains used), purified on GST beads, eluted with reduced glutathione; bacterial cell lysate in the immunoprecipitation
